Measured values published in patent US20250352661A1 (MYTHIC THERAPEUTICS, published 2025).
Substitutions are numbered along the chain they refer to. Numbers in names are those of the source.

B1: MYT2737 (antibody, V domains shown)
VH: EVQLVQSGAEVKKPGASVKVSCKASGYKFSSYWIEWVKQAPGQGLEWIGEILPGSDTTNYNEKFKDRATFTSDTSINTAYMELSRLRSDDTAVYYCARDRGNYRAWFGYWGQGTLVTVSS
VL: DIQMTQSPSSLSASVGDRVTITCRASQDISNYLNWYQQKPGGAVKFLIYHTSRLHSGVPSRFSGSGSGTDYTLTISSLQPEDFATYFCQQGEALPWTFGGGTKVEIK
B2: MYT8483 (antibody, IgG1, V domains shown)
VH: EVQLVESGGGLVQPGGSLRLSCTASGFSFSGSYWICWVRQAPGKGLEWVGCINGGSLDITYYASWAKGRFTISRDTSKNTVYLQKTSLRAEDTAVYYCASDTSYTAYGNFYFNLWGQGTLVTVSS
VL: EIVMTQSPSPLSASVGDRVIITCQSSQSVLNNNWLAWYQQKPGKAPKLLIYDASSLASGVPSRFSGSGSGAEFTLTISSLQPDDFATYYCQGEFSCGSADCNAFGQGTKLTVL
B3: MYT9507 (antibody, V domains shown)
VH: EVQLVESGGGLVQPGGSLRLSCTASGFSFSSSHWICWVRQAPGKGLEWVGCIYAGSIGSTYYASWAKGRFTISRDTSKNTVYLQMNSLRAEDTAVYYCARAPNDIYNYYFNLWGQGTLVTVSS
VL: EIVMTQSPSTLSASVGDRVIITCDASENIYNYLAWYQQKPGKAPKLLIYYASTLASGVPSRFSGSGSGAEFTLTISSLQPDDFATYYCQSGYVSKSSTFGQGTKLTVL
B4: MYT9523 (antibody, V domains shown)
VH: B3 VH
VL: B3 VL with D24Q, A55D
B5: MYT8417 (antibody, V domains shown)
VH: EVQLVESGGGLVQPGGSLRLSCTASGLDFRRTNYICWVRQAPGKGLEWVGCIYIADVVHYYASWAKGRFTFSRDTSKNTVYLQMNSLRAEDTAVYYCARGADGGFVYGMDLWGQGTLVTVSS
VL: EIVMTQSPSTLSASVGDRVIITCQASQSIGNYLSWYQQKPGKAPKRLIYSASTLPSGVPSRFSGSGSGAEFTLTISSLQPDDFATYYCQNNYWLAHYGHPFGQGTKLTVL
B6: MYT8398 (antibody, V domains shown)
VH: B5 VH with Y53H, V106H
VL: B5 VL with H96G
notes: hu15G7 VH Y53H, V106H; human Fc
B7: MYT8399 (antibody, V domains shown)
VH: B5 VH with G104H, F105H
VL: B5 VL with H96G
notes: hu15G7 VH G104H, F105H; human Fc
B8: MYT8400 (antibody, V domains shown)
VH: B5 VH with G104H, V106H
VL: B5 VL with H96G
notes: hu15G7 VH G104H, V106H; human Fc
B9: MYT8401 (antibody, V domains shown)
VH: B5 VH with F105H, V106H
VL: B5 VL with H96G
notes: hu15G7 VH F105H, V106H; human Fc
B10: MYT8402 (antibody, V domains shown)
VH: B5 VH with Y34H, Y53H, G104H
VL: B5 VL with H96G
notes: hu15G7 VH Y34H, Y53H, G104H; human Fc
B11: MYT8403 (antibody, V domains shown)
VH: B5 VH with Y34H, Y53H, F105H
VL: B5 VL with H96G
notes: hu15G7 VH Y34H, Y53H, F105H; human Fc
B12: MYT8405 (antibody, V domains shown)
VH: B5 VH with Y34H, G104H, F105H
VL: B5 VL with H96G
notes: hu15G7 VH Y34H, G104H, F105H; human Fc
B13: MYT8406 (antibody, V domains shown)
VH: B5 VH with Y34H, G104H, V106H
VL: B5 VL with H96G
notes: hu15G7 VH Y34H, G104H, V106H; human Fc
B14: MYT8407 (antibody, V domains shown)
VH: B5 VH with Y34H, F105H, V106H
VL: B5 VL with H96G
notes: hu15G7 VH Y34H, F105H, V106H; human Fc
B15: MYT8408 (antibody, V domains shown)
VH: B5 VH with Y53H, G104H, F105H
VL: B5 VL with H96G
notes: hu15G7 VH Y53H, G104H, F105H; human Fc
B16: MYT8409 (antibody, V domains shown)
VH: B5 VH with Y53H, G104H, V106H
VL: B5 VL with H96G
notes: hu15G7 VH Y53H, G104H, V106H; human Fc
B17: MYT8410 (antibody, V domains shown)
VH: B5 VH with Y53H, F105H, V106H
VL: B5 VL with H96G
notes: hu15G7 VH Y53H, F105H, V106H; human Fc
B18: MYT8411 (antibody, V domains shown)
VH: B5 VH with G104H, F105H, V106H
VL: B5 VL with H96G
notes: hu15G7 VH G104H, F105H, V106H; human Fc

Experiments:
[1] = biological target: T1, LRRC15 on the surface of LRRC15+ cells (SAOS-2, U87MG) (UniProt Q8TF66 22-581, limits assumed); experiment: cell-based or functional assay
T1 sequence (looked up): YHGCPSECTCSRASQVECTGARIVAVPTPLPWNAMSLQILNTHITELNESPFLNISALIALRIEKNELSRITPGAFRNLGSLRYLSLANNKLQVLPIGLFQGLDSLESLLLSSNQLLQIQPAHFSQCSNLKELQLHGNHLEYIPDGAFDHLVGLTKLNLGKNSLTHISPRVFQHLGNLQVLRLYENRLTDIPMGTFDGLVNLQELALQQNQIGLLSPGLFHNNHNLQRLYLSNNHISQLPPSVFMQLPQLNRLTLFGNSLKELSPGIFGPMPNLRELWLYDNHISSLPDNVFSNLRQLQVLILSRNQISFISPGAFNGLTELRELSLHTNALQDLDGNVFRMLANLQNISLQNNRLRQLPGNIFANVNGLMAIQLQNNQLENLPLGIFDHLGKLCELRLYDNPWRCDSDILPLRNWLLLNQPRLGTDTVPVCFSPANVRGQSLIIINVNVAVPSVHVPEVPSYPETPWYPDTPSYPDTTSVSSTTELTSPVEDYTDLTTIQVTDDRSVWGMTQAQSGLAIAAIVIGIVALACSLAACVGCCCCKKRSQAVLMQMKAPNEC

[2] = biological target: T1, LRRC15 on the surface of LRRC15+ cells …; experiment: cell-based or functional assay; remark: listed apart in the source
[3] = biological target: T2, Human LRRC15 Protein, His Tag (Acro Biosystems) (human, UniProt Q8TF66 22-538, limits assumed); experiment: BLI; dissociation pH 7.4 black, pH 5.4 grey [D00009 FIG. 1G]
T2 construct: Bought protein with His tag
T2 sequence (looked up): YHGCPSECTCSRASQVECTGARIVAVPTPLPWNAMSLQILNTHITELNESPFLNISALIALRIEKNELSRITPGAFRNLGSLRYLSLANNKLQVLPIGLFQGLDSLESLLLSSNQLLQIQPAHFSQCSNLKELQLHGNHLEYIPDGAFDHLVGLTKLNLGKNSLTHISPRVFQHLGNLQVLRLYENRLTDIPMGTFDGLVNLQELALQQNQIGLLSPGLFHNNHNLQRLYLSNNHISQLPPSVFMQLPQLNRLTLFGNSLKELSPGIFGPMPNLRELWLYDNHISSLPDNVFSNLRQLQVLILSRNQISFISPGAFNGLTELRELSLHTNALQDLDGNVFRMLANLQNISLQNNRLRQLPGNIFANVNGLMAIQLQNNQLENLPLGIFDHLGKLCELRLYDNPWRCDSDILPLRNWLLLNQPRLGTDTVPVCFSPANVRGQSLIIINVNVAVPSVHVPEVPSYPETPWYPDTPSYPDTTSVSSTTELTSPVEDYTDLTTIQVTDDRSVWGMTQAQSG

Row | Internalization in SAOS-2 cells (10 nM, 24 hours), FOB = fold over background (IgG control) [1] | Internalization in SAOS-2 cells (10 nM, 24 hours), FOS = fold over samrotamab [1] | Internalization in U87MG cells (10 nM, 24 hours), FOB = fold over background (IgG control) [2] | Internalization in U87MG cells (10 nM, 24 hours), FOS = fold over samrotamab [2] | binding result [3] | Binder
1 | 2.01 fold over background (IgG control) | 0.62 fold over samrotamab | 2.07 fold over background (IgG control) | 1.24 fold over samrotamab | – | B1
2 | 2.62 fold over background (IgG control) | 1 fold over samrotamab | 2.25 fold over background (IgG control) | 1.45 fold over samrotamab | – | B2
3 | 3.16 fold over background (IgG control) | 1.33 fold over samrotamab | 3.58 fold over background (IgG control) | 3.01 fold over samrotamab | – | B3
4 | 3.23 fold over background (IgG control) | 1.37 fold over samrotamab | 3.05 fold over background (IgG control) | 2.4 fold over samrotamab | – | B4
5 | 2.68 fold over background (IgG control) | 1.04 fold over samrotamab | 2.76 fold over background (IgG control) | 2.06 fold over samrotamab | – | B5
6 | – | – | – | – | no binding (tested: 50 nM LRRC15) | B6
7 | – | – | – | – | binds | B7
8 | – | – | – | – | binds | B8
9 | – | – | – | – | binds | B9
10 | – | – | – | – | no binding (tested: 50 nM LRRC15) | B10
11 | – | – | – | – | no binding (tested: 50 nM LRRC15) | B11
12 | – | – | – | – | binds | B12
13 | – | – | – | – | no binding (tested: 50 nM LRRC15) | B13
14 | – | – | – | – | no binding (tested: 50 nM LRRC15) | B14
15 | – | – | – | – | no binding (tested: 50 nM LRRC15) | B15
16 | – | – | – | – | no binding (tested: 50 nM LRRC15) | B16
17 | – | – | – | – | no binding (tested: 50 nM LRRC15) | B17
18 | – | – | – | – | binds | B18
